Reference: paper PMC3146575

What was measured:
[1] = target: T1, hOGG1 K249Q (catalytically inactive) (human, UniProt O15527 1-345, K249Q); assay: EMSA
[2] = target: T1, hOGG1 K249Q (catalytically inactive); assay: EMSA; remark: listed apart in the source

T1 sequence (O15527 whole entry K249Q): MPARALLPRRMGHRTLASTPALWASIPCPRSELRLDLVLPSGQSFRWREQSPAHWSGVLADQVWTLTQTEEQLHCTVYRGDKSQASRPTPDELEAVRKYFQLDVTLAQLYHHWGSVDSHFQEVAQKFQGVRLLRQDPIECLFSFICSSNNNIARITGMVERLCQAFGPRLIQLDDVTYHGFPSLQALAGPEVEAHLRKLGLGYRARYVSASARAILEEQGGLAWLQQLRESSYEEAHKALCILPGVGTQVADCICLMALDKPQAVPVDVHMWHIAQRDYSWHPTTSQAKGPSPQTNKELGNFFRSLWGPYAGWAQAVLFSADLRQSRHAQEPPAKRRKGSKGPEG

Binder	binding result [1]	Kd [2] [nM]
CAGCAGCAGCAGCAGCAGCAGCAGCAGCAG (structured_DNA, 8-oxoG in 2nd CAG repeat (G6)) [Stem-HP]	no binding	–
CAGCAGCAGCAGCAGCAGCAGCAGCAGCAG (structured_DNA, 8-oxoG in 5th CAG repeat (G15)) [Loop-HP]	no binding	–
Stem-DUP (dsDNA, 8-oxoG in 2nd CAG repeat (G6 of strand 1)) DNA 1: CAGCAGCAGCAGCAGCAGCAGCAGCAGCAG DNA 2: CTGCTGCTGCTGCTGCTGCTGCTGCTGCTG	–	21.7 ± 6.8
